Assay results from publication PMC3176717 (Biochemistry, 2011).
Read-outs that look alike come from different tables or passages of the source.

B1: wild type human Prx I (peroxiredoxin I), reduced, non-glutathionylated (enzyme, UniProt Q06830 1-199, looked up)
chain: MSSGNAKIGHPAPNFKATAVMPDGQFKDISLSDYKGKYVVFFFYPLDFTFVCPTEIIAFSDRAEEFKKLNCQVIGASVDSHFCHLAWVNTPKKQGGLGPMNIPLVSDPKRTIAQDYGVLKADEGISFRGLFIIDDKGILRQITVNDLPVGRSVDETLRLVQAFQFTDKHGEVCPAGWKPGSDTIKPDVQKSKEYFSKQK
B2: human Prx I (C52S/C173S) double mutant, reduced (enzyme, UniProt Q06830 1-199, looked up)
chain: MSSGNAKIGHPAPNFKATAVMPDGQFKDISLSDYKGKYVVFFFYPLDFTFVSPTEIIAFSDRAEEFKKLNCQVIGASVDSHFCHLAWVNTPKKQGGLGPMNIPLVSDPKRTIAQDYGVLKADEGISFRGLFIIDDKGILRQITVNDLPVGRSVDETLRLVQAFQFTDKHGEVSPAGWKPGSDTIKPDVQKSKEYFSKQK
B3: glutathionylated Prx I (C83S) mutant (enzyme, human, UniProt Q06830 1-199, looked up)
chain: MSSGNAKIGHPAPNFKATAVMPDGQFKDISLSDYKGKYVVFFFYPLDFTFVCPTEIIAFSDRAEEFKKLNCQVIGASVDSHFSHLAWVNTPKKQGGLGPMNIPLVSDPKRTIAQDYGVLKADEGISFRGLFIIDDKGILRQITVNDLPVGRSVDETLRLVQAFQFTDKHGEVCPAGWKPGSDTIKPDVQKSKEYFSKQK
modifications: glutathionylated by disulfide exchange with GSSG; sites not stated for this mutant

What was measured:
AUC [1] = target: the molecule itself; test: AUC
AUC [2] = target: the molecule itself; test: AUC; remark: listed apart in the source

| Protein | stoichiometry N (AUC [1]) | stoichiometry N (AUC [2]) |
| --- | --- | --- |
| B1 | 10 |  |
| B2 | 10 |  |
| B3 |  | 2 |
